± gives the standard deviation.
Assay: protein stability index of a GFP-peptide fusion (GPS, HEK-293T) (PSI 1-6); higher = more stable
[1] = treatment: DMSO, c terminus: a fixed tail appended
[2] = treatment: MLN4924 1 uM, 8 h, c terminus: a fixed tail appended
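Also: 24-mer peptide tiles fused after GFP, lentivirally expressed, FACS-sorted into six equal bins by GFP/DsRed ratio, decoded by Illumina sequencing, PSI is the read-weighted mean bin number.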

## LAMLNAVTEDLRLKDWEHSIALRN [SCARA5]
[1]
  protein stability index: 2.86 ± 0.17
[2]
  protein stability index: 2.93 ± 0.16

## HLPWQYHAGQGGLFYSAEVEMLCD [CCDC3]
[1]
  protein stability index: 2.94 ± 0.44
[2]
  protein stability index: 2.52 ± 0.2

## EQQNQEYKILLDVKTRLEQEIATY [KRT17]
[1]
  protein stability index: 3.44 ± 0.34
[2]
  protein stability index: 3.59 ± 0.56

## REVDLNGDGTVDFDEFVMMLSRH [CABP4]
treatment: DMSO, c terminus: native
  protein stability index: 4 ± 0.17
treatment: MLN4924 1 uM, 8 h, c terminus: native
  protein stability index: 4.23 ± 0.28

## AAGVDHVILAVSYMSQVLEKEMKA [GMPPB]
[1]
  protein stability index: 2.25 ± 0.62
[2]
  protein stability index: 2.44 ± 0.23

## VPIGASIYVIGDLDTGTNYDYVRE [GAN]
[1]
  protein stability index: 2.29 ± 0.45
[2]
  protein stability index: 2.21 ± 0.31

## SSSSSSSPTSGSPRGSHSSALERL [LURAP1L]
[1]
  protein stability index: 4.83 ± 0.15
[2]
  protein stability index: 4.91 ± 0.14

## STCFTELQRDFLKQRPTKLKSLIR [OAS1]
[1]
  protein stability index: 2.6 ± 0.17
[2]
  protein stability index: 2.66 ± 0.14

## EKLKEKLKMKEREEAWVKIENLAK [PPP2R5C]
[1]
  protein stability index: 2.54 ± 0.6
[2]
  protein stability index: 2.48 ± 0.39

## LTEASAHSHPPEIKDQGGAGEGLV [MAP2]
[1]
  protein stability index: 5.57 ± 0.15
[2]
  protein stability index: 5.56 ± 0.2

## SEKAANDDHSVRVAREDVRESCPP [CPXM2]
[1]
  protein stability index: 5.49 ± 0.22
[2]
  protein stability index: 5.44 ± 0.061

## IPVAMEHQPPYIIAVLPRYVEIRT [VPS39]
[1]
  protein stability index: 2.6 ± 0.48
[2]
  protein stability index: 2.44 ± 0.46

## TRGRGGLLRDHIPRGKEELESLGG [MOG]
[1]
  protein stability index: 4.72 ± 0.081
[2]
  protein stability index: 4.95 ± 0.19

## YANGGLNYSYRGYGALSSNLQPPA [NOL4L]
[1]
  protein stability index: 2.49 ± 0.36
[2]
  protein stability index: 2.94 ± 0.35

## LIFSVQPKSLVRLSLEAVICFKEM [KLHDC2]
[1]
  protein stability index: 1.88 ± 0.17
[2]
  protein stability index: 2.04 ± 0.31

## GRSWPSAPDDSKAQAHRIHIDPEI [PDLIM4]
[1]
  protein stability index: 4.22 ± 0.33
[2]
  protein stability index: 4.31 ± 0.07

## LLDDSKTWWRVRNAANRTGYVPSN [NCK2]
[1]
  protein stability index: 2.93 ± 0.23
[2]
  protein stability index: 2.79 ± 0.15

## ADQTVLTEDEKKELENLAAMDLEL [CHGB]
[1]
  protein stability index: 5.6 ± 0.28
[2]
  protein stability index: 5.61 ± 0.16

## QGDSSQQSLKGHLRNNFQKQLLSN [ZC2HC1C]
[1]
  protein stability index: 3.31 ± 0.27
[2]
  protein stability index: 3.88 ± 0.16

## NYIGTKNVIETCKEAGVQKLILTS [NSDHL]
[1]
  protein stability index: 2.5 ± 0.23
[2]
  protein stability index: 2.84 ± 0.44

## NPFAKGFRENGRNCKRERDARVKR [TBX6]
[1]
  protein stability index: 4.1 ± 0.24
[2]
  protein stability index: 4.09 ± 0.36

## LVVIQQPSLDSRQRLDYEREIQPT [SPRY1]
[1]
  protein stability index: 2.96 ± 0.2
[2]
  protein stability index: 3.1 ± 0.11

## DYRMELAQAGTPAPTKPHDYRQEQ [SPAG8]
[1]
  protein stability index: 5.11 ± 0.088
[2]
  protein stability index: 5.16 ± 0.14

## ETAEEVSARIVQVVTAEAVAVLKG [MAP2]
[1]
  protein stability index: 3.36 ± 0.27
[2]
  protein stability index: 3.45 ± 0.34

## GIRLPNGKLKCDICGIICIGPNVL [IKZF1]
[1]
  protein stability index: 2.61 ± 0.48
[2]
  protein stability index: 2.46 ± 1

## ERLLCPSLLAGTADGSLRMDDPKG [M1AP]
[1]
  protein stability index: 4.74 ± 0.3
[2]
  protein stability index: 4.71 ± 0.3

## EEEENRDSQQPGKRRKDSEEEAAS [FANCE]
[1]
  protein stability index: 5.78 ± 0.21
[2]
  protein stability index: 5.73 ± 0.2

## LHVAAHYGRDSFVRLLLEFKAEVD [ASB7]
[1]
  protein stability index: 2.15 ± 0.14
[2]
  protein stability index: 2.15 ± 0.37

## PYIQLPSHSNITGIVEVILGETKA [TRIB1]
[1]
  protein stability index: 2.63 ± 0.48
[2]
  protein stability index: 2.67 ± 0.52

## GCLKMNPDDRLTCSQLLESSYFDS [CDKL4]
[1]
  protein stability index: 3.4 ± 0.45
[2]
  protein stability index: 3.54 ± 0.21

## QVKLYDIEQQQIRNALENIRKEMK [CRYL1]
[1]
  protein stability index: 3.14 ± 0.65
[2]
  protein stability index: 3.47 ± 0.29

## REQLQAEASERFAAGYIQCMHEVH [HES6]
[1]
  protein stability index: 3.62 ± 0.37
[2]
  protein stability index: 3.77 ± 0.22

## IRHNLSLNKCFIKVPREKDEPGKG [FOXJ1]
[1]
  protein stability index: 3.78 ± 0.3
[2]
  protein stability index: 3.9 ± 0.2

## TDSEHSDAEVSCTDNGTFNLSRGQ [RETREG3]
[1]
  protein stability index: 5.24 ± 0.22
[2]
  protein stability index: 5.28 ± 0.22

## EERKNEMTQVITRTQEEKLEHVRA [TRIM55]
[1]
  protein stability index: 5.3 ± 0.21
[2]
  protein stability index: 5.54 ± 0.21

## PVACGSVLSEGSPLTEQEESSPSH [SRPK2]
[1]
  protein stability index: 5.52 ± 0.17
[2]
  protein stability index: 5.51 ± 0.17

## QRILRIMCRLEELGLAGRCLTLTP [HDAC6]
[1]
  protein stability index: 2.39 ± 0.44
[2]
  protein stability index: 2.34 ± 0.39

## FRPGHLLANACLPVRTTNKISKQF [ZSWIM9]
[1]
  protein stability index: 2.78 ± 0.12
[2]
  protein stability index: 2.8 ± 0.19

## HFKKTKKMGGKDFSFRYQQELEEE [ATL3]
[1]
  protein stability index: 2.59 ± 0.56
[2]
  protein stability index: 3.54 ± 0.81

## HAPGVPKILVGNRLHLAFKRQVPR [RAB40A]
[1]
  protein stability index: 2.58 ± 0.28
[2]
  protein stability index: 2.88 ± 0.31

## RQITSPVSGINGDIRAKKIASIAD [HNF4A]
[1]
  protein stability index: 4.1 ± 0.25
[2]
  protein stability index: 4.13 ± 0.2

## LRRELELLGRERDRVQVERDGLAE [PRPH]
[1]
  protein stability index: 4.6 ± 0.49
[2]
  protein stability index: 4.8 ± 0.36

## GKTTIILRCLDRDEPSKPTLALEY [DYNC2LI1]
[1]
  protein stability index: 2.25 ± 0.37
[2]
  protein stability index: 2.05 ± 0.29

## VKLWKVSERDKRPEGYNLKDEEGR [PPP2R2B]
[1]
  protein stability index: 4.07 ± 0.5
[2]
  protein stability index: 4.336 ± 0.038

## GGADIIVIKYNVNDKFSFHEVKDN [RHOBTB3]
[1]
  protein stability index: 2.72 ± 0.42
[2]
  protein stability index: 2.09 ± 0.55
